{
  "source": "paper PMC4989314",
  "about": "“Regulatory (pan-)genome of an obligate intracellular pathogen in the PVC superphylum”",
  "data": [
    {"target": "T1, His6-Euo (Waddlia chondrophila, UniProt D6YSI2 1-142)", "T1 sequence": "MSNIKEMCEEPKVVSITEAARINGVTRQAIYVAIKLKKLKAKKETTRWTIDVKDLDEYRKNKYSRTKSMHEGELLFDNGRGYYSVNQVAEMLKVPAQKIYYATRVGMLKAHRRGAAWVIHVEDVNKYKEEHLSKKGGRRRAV", "experiment": "EMSA; EMSA with Cy5 PCR probes or 80 ng unlabelled DNA (GelRed); buffer, salt, pH and temperature not in material", "conditions": "protein: recombinant; tags: His6; chain copies: 2; label: Cy5; blunt", "values": [
      {"molecule": "PqueF_mut 1+2+3+4 (dsDNA) DNA 1: AAACTGCAGGGCCAATCTTTCATTGATTGTCCATTCATGGTCGGCAAGGGTTGAGAGAAGGGCTTTATTTTAGGGTTCGTTCTTTGATAGGGTTGCAGGCATGGTGCAAGTGCAGGATTCAGTTTTAGGAAAAAAGACGTTTTATAAGGATCGGTACGAGTCGACAAA DNA 2: TTTGTCGACTCGTACCGATCCTTATAAAACGTCTTTTTTCCTAAAACTGAATCCTGCACTTGCACCATGCCTGCAACCCTATCAAAGAACGAACCCTAAAATAAAGCCCTTCTCTCAACCCTTGCCGACCATGAATGGACAATCAATGAAAGATTGGCCCTGCAGTTT", "binding result": "no binding"},
      {"molecule": "PftsY_mut 1+2 (dsDNA) DNA 1: TTTGTCGACTTATCTTACACAACTGAGACTTCCAATGGTACTACCCTTCTTCCCATCTAGTTTTGAAAAAGTTAAAAATGCCCTCTCCAAAACGCGTTCCGCTCTGGGAGAAAAATTGCGTTCTCTTTTCAGTGGAAAAATCGATGAAGAAACACTGGACTGCAGTTT DNA 2: AAACTGCAGTCCAGTGTTTCTTCATCGATTTTTCCACTGAAAAGAGAACGCAATTTTTCTCCCAGAGCGGAACGCGTTTTGGAGAGGGCATTTTTAACTTTTTCAAAACTAGATGGGAAGAAGGGTAGTACCATTGGAAGTCTCAGTTGTGTAAGATAAGTCGACAAA", "binding result": "no binding"}
    ]},
    {"target": "T2, His6-HrcA (Waddlia chondrophila) (UniProt D6YSD6)", "T2 sequence": "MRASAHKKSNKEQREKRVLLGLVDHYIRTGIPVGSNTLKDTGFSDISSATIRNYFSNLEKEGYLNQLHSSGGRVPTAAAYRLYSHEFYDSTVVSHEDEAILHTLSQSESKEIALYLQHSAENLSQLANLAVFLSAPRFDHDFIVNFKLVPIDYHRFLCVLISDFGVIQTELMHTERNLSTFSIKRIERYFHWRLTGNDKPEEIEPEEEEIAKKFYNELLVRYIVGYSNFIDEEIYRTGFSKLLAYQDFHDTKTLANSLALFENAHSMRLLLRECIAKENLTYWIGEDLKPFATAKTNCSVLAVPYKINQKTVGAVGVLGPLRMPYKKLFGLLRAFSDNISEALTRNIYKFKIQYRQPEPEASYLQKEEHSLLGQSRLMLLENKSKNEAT", "experiment": "EMSA", "conditions": "EMSA with Cy5 PCR probes or 80 ng unlabelled DNA (GelRed); buffer, salt, pH and temperature not in material", "values": [
      {"molecule": "GCTGCTCAATTGGTCTATAAAAAAGGACTTGACTGGCGCCCTTCTATTGTCGACATTTTACCCGTCATTCTGGAAAAACAAATCTAGCAAATAGCTTTGTTGAGTGCTAATTCCTTCTTGACCTCTTTTAAACCCCTTGTTATAATGAAA (double strand) [PhrcA (HrcA EMSA)]", "binding": "binds"},
      {"molecule": "CTAGCTAGCTAAACATCTGCTTAAGTGATAACACCTCTAATGCTATCAATATCCTTCGATATTTTGCAATAGAAAATTAGCACTTTGGCAATTAAAGTGCTAATAACTTATCCAGCTCCTCGACAAGATTGCTGAATTTTTTGATGGCAG (double strand) [PgroES1]", "binding": "binds"},
      {"molecule": "CCTATATCGTATGGCGGCTAAAAGAGCTTGACCGGGCGAAAAGGGAGCAATTTAAGCAAAAGCGGGAACGGTATTTATTGTACCGCTAAAAACTGGCACTTAAATTCATCAACTGCTAATATGTTGACGTAAATCCATTGAACTCTTAAA (double strand) [PgroES3]", "binding": "binds"},
      {"molecule": "CATAACTTTTTGGGAATTTCAAGATCGACTCGGGATCGTGCAGTAAAACATTAGTATCTAATACAAAGGTCTTTTTCTTCACATACGCTCCTTTTTAATAGCACTTATAGCTTGAGAGTGCTAAATCAATTGACTTAAATAGGTTTATTT (double strand) [PphoH]", "binding": "binds"},
      {"molecule": "ATTTATAAAGAAACTTCTCTTGGAGGGCTTGCAGTAAACGTGCCTGAATGCTAAAAGATTTGGTATATGGAGCTAATAAAGGATCAAATGCAAAGATACGAAGAACGGGAACTCGTCGAATTCGAAAATCAAGGGATAAAAATTTTTGGA (double strand) [Pwcw_1080]", "binding": "binds"}
    ]},
    {"target": "T3, His6-Euo (Waddlia chondrophila) (UniProt D6YSI2)", "T3 sequence": "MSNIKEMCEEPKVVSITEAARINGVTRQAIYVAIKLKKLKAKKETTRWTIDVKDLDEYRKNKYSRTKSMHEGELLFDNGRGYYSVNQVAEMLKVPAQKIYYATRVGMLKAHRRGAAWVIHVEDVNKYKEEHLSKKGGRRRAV", "experiment": "EMSA", "conditions": "EMSA with Cy5 PCR probes or 80 ng unlabelled DNA (GelRed); buffer, salt, pH and temperature not in material", "values": [
      {"molecule": "TCGTACCGATCCTTATAAAACGTCTTTTTTCCTAAAACTGAATCCTGCACTTGCACCATGCCTGCAATTTTATCAAAGAACGAATTTTAAAATAAAGAAATTCTCTCAAAAATTGCCGACCATGAATGGACAATCAATGAAAGATTGGCC (double strand) [PqueF (frag0)]", "binding": "binds"},
      {"molecule": "CACCGGAAGATGTGGTGCTGATTGCGGGCAGAGGGCATGAACCTTATCAAATATTTGCGCATCAAACAATAGAATTTAAAGATCGCGAAGTTGTAGAGGATATATTACATTCATGAGGAGAAGCAATCGCAGGGAATTCTTAAAAAATAG (double strand) [PamiA]", "binding": "binds"},
      {"molecule": "TGTAATGCCATGGGATCGCGTTTAAGCGAGATCATATAGTAGCTCCTAAAAAAATATTCCTTGCAAGACAAACAAATTTTTTCGTGTAAAGTTTGCATTTTCAAAATCGGACCAGATGAAAATGCGCAAACTCTCTTTTTTACTCCTCC (double strand) [Prhs9]", "binding": "binds"},
      {"molecule": "TTCGCGGGCAGCGTTGATCCCGCCAAAACCGCCTCCAATAATAATGACTTTAGGTTTGCTCATATCTTGTTTATATAATTAAAAATGATTTTAAAAATCCAGATTAAAATTGTTCGACGAGTTGATGGATTTCTGAAAAGGAAAGGGGGT (double strand) [Pndh]", "binding": "binds"},
      {"molecule": "TTGTCATGAAAAACTCTATGAATCAAATAAGGAGGGGCATTTACATGGCGCTCAGTAAAACTATCAACGAAATGAGGAGCCTTTTTACAGGTCTAATCGATGACCTTCAAAAGGCTGAAGCAGGTAACAAAGCTGCCTCTCAGCGTGTAA (double strand) [PhctA]", "binding": "no binding"},
      {"molecule": "TCCAGTGTTTCTTCATCGATTTTTCCACTGAAAAGAGAACGCAATTTTTCTCCCAGAGCGGAACGCGTTTTGGAGAGGGCATTTTTAACTTTTTCAAAACTAGATTTTAAGAATTTTAGTACCATTGGAAGTCTCAGTTGTGTAAGATAA (double strand) [PftsY (frag0)]", "binding": "binds"}
    ]}
  ]
}
